The target in the assay is endogenous β-catenin of HEK293 cells (human (endogenous in HEK293)) (UniProt P35222).
UniProt P35222, sequence (P35222 whole entry): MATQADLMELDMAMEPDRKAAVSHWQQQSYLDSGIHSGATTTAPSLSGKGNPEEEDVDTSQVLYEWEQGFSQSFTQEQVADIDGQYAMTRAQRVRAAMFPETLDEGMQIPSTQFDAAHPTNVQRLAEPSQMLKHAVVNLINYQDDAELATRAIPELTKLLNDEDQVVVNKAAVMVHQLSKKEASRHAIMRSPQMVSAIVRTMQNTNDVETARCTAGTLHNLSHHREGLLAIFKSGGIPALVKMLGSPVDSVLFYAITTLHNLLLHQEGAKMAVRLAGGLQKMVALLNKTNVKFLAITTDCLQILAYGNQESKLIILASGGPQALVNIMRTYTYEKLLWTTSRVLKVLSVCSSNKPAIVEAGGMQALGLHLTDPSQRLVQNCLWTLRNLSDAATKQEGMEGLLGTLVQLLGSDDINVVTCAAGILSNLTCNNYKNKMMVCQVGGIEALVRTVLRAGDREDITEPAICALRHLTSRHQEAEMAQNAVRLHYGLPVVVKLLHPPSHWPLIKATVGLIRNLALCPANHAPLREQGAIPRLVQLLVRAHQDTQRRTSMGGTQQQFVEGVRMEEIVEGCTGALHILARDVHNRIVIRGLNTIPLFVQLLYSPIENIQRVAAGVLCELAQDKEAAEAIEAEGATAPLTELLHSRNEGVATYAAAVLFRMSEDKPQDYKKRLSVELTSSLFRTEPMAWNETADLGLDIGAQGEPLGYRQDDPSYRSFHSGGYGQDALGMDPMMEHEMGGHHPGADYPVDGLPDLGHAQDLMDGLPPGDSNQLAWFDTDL

For “WT-Nef expressed in HEK293 cells (natural protein)”, the inhibition of the TopFlash (TCF-luciferase) reporter, TopFlash/FopFlash ratio, HEK293 cells with Wnt-conditioned media, 50 ng Nef plasmid was 40%.
